# Laboratory results as given in IntAct's records for PubMed 22317921.
# B1: Zinc transporter SLC39A7 (Homo sapiens), Q92504 (parent)
# chain: MARGLGAPHWVAVGLLTWATLGLLVAGLGGHDDLHDDLQEDFHGHSHRHSHEDFHHGHSHAHGHGHTHESIWHGHTHDHDHGHSHEDLHHGHSHGYSHESLYHRGHGHDHEHSHGGYGESGAPGIKQDLDAVTLWAYALGATVLISAAPFFVLFLIPVESNSPRHRSLLQILLSFASGGLLGDAFLHLIPHALEPHSHHTLEQPGHGHSHSGQGPILSVGLWVLSGIVAFLVVEKFVRHVKGGHGHSHGHGHAHSHTRGSHGHGRQERSTKEKQSSEEEEKETRGVQKRRGGSTVPKDGPVRPQNAEEEKRGLDLRVSGYLNLAADLAHNFTDGLAIGASFRGGRGLGILTTMTVLLHEVPHEVGDFAILVQSGCSKKQAMRLQLLTAVGALAGTACALLTEGGAVGSEIAGGAGPGWVLPFTAGGFIYVATVSVLPELLREASPLQSLLEVLGLLGGVIMMVLIAHLE
# Variants of: B1
# Settings: with csk21_human CSNK2A1, P68400
# Chain of csk21_human CSNK2A1, P68400 (P68400 whole entry, looked up): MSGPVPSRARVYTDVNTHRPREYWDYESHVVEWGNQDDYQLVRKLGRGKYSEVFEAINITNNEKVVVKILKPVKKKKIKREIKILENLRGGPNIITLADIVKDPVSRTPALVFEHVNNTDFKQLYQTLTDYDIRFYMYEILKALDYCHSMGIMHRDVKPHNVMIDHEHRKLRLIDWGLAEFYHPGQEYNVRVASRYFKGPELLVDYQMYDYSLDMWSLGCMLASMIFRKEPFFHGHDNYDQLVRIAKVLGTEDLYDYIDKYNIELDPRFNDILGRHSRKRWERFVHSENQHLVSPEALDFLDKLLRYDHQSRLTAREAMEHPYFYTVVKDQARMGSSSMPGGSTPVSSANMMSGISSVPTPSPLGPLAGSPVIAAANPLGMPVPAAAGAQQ
row,effect of a mutation on the interaction,Variant
1,decreasing interaction,MARGLGAPHWVAVGLLTWATLGLLVAGLGGHDDLHDDLQEDFHGHSHRHSHEDFHHGHSHAHGHGHTHESIWHGHTHDHDHGHSHEDLHHGHSHGYSHESLYHRGHGHDHEHSHGGYGESGAPGIKQDLDAVTLWAYALGATVLISAAPFFVLFLIPVESNSPRHRSLLQILLSFASGGLLGDAFLHLIPHALEPHSHHTLEQPGHGHSHSGQGPILSVGLWVLSGIVAFLVVEKFVRHVKGGHGHSHGHGHAHSHTRGSHGHGRQERSTKEKQAAEEEEKETRGVQKRRGGSTVPKDGPVRPQNAEEEKRGLDLRVSGYLNLAADLAHNFTDGLAIGASFRGGRGLGILTTMTVLLHEVPHEVGDFAILVQSGCSKKQAMRLQLLTAVGALAGTACALLTEGGAVGSEIAGGAGPGWVLPFTAGGFIYVATVSVLPELLREASPLQSLLEVLGLLGGVIMMVLIAHLE [S275A;S276A]
